Source: article PMC11074299

Molecular target: T1, wild-type full-length FADD (FADD^FuL) (human), Q13158
T1 chain: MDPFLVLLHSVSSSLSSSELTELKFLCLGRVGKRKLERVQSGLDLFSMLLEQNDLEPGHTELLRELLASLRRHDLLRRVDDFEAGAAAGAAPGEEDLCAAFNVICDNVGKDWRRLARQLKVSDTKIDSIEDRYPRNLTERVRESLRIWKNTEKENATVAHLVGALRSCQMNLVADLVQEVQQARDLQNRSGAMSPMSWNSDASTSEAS
Assay: cryo-EM structure; FA^FuL-C8^FuL_FGLG_CADA-CF complex; Complex A without cross-linking (7.5 Å) and Complex B stabilised by GraFix, glutaraldehyde (3.7 Å); Casp-8 protease domain and FADD DD not visible
Conditions: remark: other sources report otherwise

B1: wild-type full-length FADD (FADD^FuL), Q13158 1-208 (natural protein)
chain: MDPFLVLLHSVSSSLSSSELTELKFLCLGRVGKRKLERVQSGLDLFSMLLEQNDLEPGHTELLRELLASLRRHDLLRRVDDFEAGAAAGAAPGEEDLCAAFNVICDNVGKDWRRLARQLKVSDTKIDSIEDRYPRNLTERVRESLRIWKNTEKENATVAHLVGALRSCQMNLVADLVQEVQQARDLQNRSGAMSPMSWNSDASTSEAS
Q: Which stoichiometry N does the source give for B1 here?
A: 3
